{
  "source": "paper PMC2175255",
  "target": "erbB2 receptor tyrosine kinase (rat (endogenous in primary Schwann cells)) (UniProt P06494)",
  "sequence (P06494 23-1257)": "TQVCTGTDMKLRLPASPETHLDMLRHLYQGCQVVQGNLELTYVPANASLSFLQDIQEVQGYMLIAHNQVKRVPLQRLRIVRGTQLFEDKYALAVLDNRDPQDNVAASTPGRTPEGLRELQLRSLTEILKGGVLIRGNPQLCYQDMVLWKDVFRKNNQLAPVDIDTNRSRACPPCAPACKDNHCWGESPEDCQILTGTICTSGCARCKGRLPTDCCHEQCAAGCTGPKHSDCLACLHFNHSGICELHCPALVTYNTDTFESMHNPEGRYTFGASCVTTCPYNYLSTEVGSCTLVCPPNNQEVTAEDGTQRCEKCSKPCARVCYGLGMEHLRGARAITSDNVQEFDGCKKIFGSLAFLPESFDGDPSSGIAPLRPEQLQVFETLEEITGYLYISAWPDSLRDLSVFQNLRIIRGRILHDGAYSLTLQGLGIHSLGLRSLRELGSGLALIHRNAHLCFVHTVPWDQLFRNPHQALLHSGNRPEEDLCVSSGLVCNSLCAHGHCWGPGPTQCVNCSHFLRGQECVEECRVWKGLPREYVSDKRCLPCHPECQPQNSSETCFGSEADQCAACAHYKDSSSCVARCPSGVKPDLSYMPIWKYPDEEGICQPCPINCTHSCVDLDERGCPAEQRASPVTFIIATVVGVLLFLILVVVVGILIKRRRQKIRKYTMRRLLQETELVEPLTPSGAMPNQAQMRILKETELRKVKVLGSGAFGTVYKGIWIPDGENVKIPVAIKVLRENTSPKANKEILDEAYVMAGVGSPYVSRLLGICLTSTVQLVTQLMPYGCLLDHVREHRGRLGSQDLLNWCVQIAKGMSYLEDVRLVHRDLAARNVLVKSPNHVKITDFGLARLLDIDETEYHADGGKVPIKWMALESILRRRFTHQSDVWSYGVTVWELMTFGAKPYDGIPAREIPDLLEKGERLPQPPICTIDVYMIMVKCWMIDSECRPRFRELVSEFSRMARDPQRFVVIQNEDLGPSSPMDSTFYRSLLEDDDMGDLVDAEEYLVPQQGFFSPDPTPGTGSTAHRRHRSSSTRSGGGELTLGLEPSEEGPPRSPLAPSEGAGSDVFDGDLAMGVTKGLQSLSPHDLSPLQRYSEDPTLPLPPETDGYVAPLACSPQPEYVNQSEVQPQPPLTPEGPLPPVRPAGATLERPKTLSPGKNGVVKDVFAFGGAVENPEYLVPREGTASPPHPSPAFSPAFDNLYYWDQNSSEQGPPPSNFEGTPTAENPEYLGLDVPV",
  "test": "co-IP",
  "data": [
    {"substance": "CD44 transmembrane glycoprotein (from UniProt P26051 22-503) (natural protein)", "values": [
      {"measurement": "fold CD44 co-immunoprecipitated with rh-GGF2 against untreated cells", "value": 2, "unit": "fold"}
    ]}
  ]
}
